Data set [1] has as its target T1, WT-14 (RecA residues 196-209 peptide) (Escherichia coli, UniProt P0A7G8).
T1 chain: RMKIGVMFGNPETT
Kind of data set: filter; peptide up to 100 uM, pH 8.3; no joint molecules. As to conditions: protein: synthetic; tags: synthetic peptide, HPLC purified; label: 5' 32P.

Data set [2] concerns the target T2, FECO (RecA residues 193-212 peptide) (Escherichia coli, UniProt P0A7G8 SEQ:1-20).
T2 chain: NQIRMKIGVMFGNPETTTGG
Nature of the data set: filter; 10 mM MgCl2, pH 8.3, room temp; less tight without Mg; unstacks ssDNA (permanganate); joint molecules with homologous pBluescript but not pUC19 (Example 5). As to conditions: protein: synthetic; tags: synthetic peptide, HPLC purified; label: 5' 32P.

For data set [3], the target named is T2, FECO (RecA residues 193-212 peptide). Nature of the data set: CD, random coil to beta structure, pH 7.5. The note with it: protein: synthetic; tags: synthetic peptide, HPLC purified.

B1: BS-S1 ssDNA (ssDNA)
DNA: GGCCGCTCTAGAACTAGTGGATCCCCCGGGCTGCAGGAATTCGATATCAAGCT
As for B1, the figures for the binding result in data set [1] and in data set [2] were “no binding” and “binds”, respectively.

B2: 57-mer ssDNA (ssDNA)
DNA: CTGTCTACTCTCGAGGTTAACCCGTGCGAATTCTACGATTGGTGCGGCCGGTATATC
For the molecule B2, the binding result in data set [3] is “binds”.

(Values after patent publication US5731411, “Promotion of homologous DNA pairing by RecA-derived peptides” (The United States of America as represented by the …).)
